Read-outs that look alike come from different tables or passages of the source.
Tests used:
Experiment in all cases: BLI (Octet HTX)
[1] = target: T1, Recombinant Human DLL3 Protein (amino acids Ala27-Ala479, cat #9749-DL, R&D Systems) (UniProt Q9NYJ7 27-479)
T1 chain: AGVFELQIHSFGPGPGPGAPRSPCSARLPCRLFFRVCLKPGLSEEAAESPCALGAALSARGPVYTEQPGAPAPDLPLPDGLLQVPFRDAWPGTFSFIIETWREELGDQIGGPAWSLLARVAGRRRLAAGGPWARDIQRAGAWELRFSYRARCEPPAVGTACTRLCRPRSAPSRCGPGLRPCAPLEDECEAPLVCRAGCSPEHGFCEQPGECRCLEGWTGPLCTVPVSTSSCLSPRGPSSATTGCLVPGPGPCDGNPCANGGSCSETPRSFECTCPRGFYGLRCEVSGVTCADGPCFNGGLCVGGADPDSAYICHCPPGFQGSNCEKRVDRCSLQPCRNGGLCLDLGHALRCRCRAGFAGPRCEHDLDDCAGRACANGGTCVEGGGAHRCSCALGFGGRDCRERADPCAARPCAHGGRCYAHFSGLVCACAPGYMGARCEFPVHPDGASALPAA

[2] = target: T1, Recombinant Human DLL3 Protein (amino …)
[3] = target: T1, Recombinant Human DLL3 Protein (amino …)

B1: 10-O18-A (antibody, V domains shown)
VH: QVQLQESGPGLVKPSETLSLTCTVSGGSINSYYWSWIRQPPGKGLEWIGYIFYSGITNYNPSLKSRVTISLDTSKNQFSLKLSSVTAADTAVYYCARIGVAGFYFDYWGQGTLVTVSS
VL: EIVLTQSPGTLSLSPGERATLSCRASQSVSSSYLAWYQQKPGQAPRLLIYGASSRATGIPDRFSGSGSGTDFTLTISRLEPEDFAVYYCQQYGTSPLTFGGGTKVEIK
Kd [1]: 0.62 nM | Kd [2]: 0.602 nM

B2: 7-I1-B (antibody, V domains shown)
VH: EVQLVESGGGLVKPGGSLRLSCAASGFTFSNTWMSWVRQAPGKGLEWVGRIKSKSDGGTTDYAAPVKGRFTISRDDSKNTLYLQMNSLKTEDTAVYYCTQYYWNSFDYWGQGTLVTVSS
VL: not shown
Kd [1]: 0.68 nM | Kd [3]: 0.686 nM

B3: 2-C8-A (antibody, V domains shown)
VH: EVQLVESGGGLVQPGGSQRLSCAASGFTFSSYWMNWVRQAPGKGLEWVANIKEDGSEKYYVDSVKGRFTISRDNAKNSLYLQMNSLRAEDTAVYYCARDPGWAPFDYWGQGTLVTVSS
VL: DIQMSQSPSSLSASVGDRVTITCRASQGISNYLAWFQQKPGKAPKSLIYAASSLQSGVPSKFSGSGSGTDFTLAISSLQPEDFATYYCQQYNSFPYTFGQGTTLEIK
Kd [1]: 0.668 nM | Kd [2]: 0.668 nM

B4: 6-G23-F (antibody, V domains shown)
VH: QVQLVQSGAEVKKPGASVKVSCKASGYTFTSYYIHWVRQAPGQGLEWMGIIDPSDGSTNYAQKFQGRVTMTRDTSTSTVYMELSSLRSEDTAVYYCARDREYNYYGLDVWGQGTTVTVSS
VL: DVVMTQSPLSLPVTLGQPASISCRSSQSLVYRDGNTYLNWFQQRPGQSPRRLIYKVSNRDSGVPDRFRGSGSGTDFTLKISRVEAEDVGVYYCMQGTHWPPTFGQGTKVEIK
Kd [1]: 0.16 nM | Kd [3]: 0.16 nM

Reference: patent US20240115721A1 (published 2024)
